T1: rat calcitonin receptor (rat, UniProt P32214 25-516)
T1 construct: whole, on cells; Used as membranes prepared from the transfected cells; also called rCTR; rat calcitonin (a) receptor
T1 sequence (looked up): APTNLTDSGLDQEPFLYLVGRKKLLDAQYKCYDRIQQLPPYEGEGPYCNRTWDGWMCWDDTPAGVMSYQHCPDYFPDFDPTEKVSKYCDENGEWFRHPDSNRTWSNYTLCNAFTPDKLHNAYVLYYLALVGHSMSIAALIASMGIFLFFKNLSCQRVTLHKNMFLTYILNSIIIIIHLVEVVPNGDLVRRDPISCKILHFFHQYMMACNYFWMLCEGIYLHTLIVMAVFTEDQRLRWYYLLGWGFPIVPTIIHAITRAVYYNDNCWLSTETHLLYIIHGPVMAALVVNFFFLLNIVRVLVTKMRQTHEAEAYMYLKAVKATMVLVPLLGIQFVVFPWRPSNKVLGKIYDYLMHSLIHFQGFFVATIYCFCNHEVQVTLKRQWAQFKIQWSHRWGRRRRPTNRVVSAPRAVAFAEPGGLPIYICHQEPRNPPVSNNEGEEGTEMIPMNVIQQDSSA

T2: human calcitonin receptor (human, UniProt P30988 25-474)
T2 construct: whole, on cells; Used as membranes prepared from the transfected cells (Assay VII); also called hCTR; hCT
T2 sequence (looked up): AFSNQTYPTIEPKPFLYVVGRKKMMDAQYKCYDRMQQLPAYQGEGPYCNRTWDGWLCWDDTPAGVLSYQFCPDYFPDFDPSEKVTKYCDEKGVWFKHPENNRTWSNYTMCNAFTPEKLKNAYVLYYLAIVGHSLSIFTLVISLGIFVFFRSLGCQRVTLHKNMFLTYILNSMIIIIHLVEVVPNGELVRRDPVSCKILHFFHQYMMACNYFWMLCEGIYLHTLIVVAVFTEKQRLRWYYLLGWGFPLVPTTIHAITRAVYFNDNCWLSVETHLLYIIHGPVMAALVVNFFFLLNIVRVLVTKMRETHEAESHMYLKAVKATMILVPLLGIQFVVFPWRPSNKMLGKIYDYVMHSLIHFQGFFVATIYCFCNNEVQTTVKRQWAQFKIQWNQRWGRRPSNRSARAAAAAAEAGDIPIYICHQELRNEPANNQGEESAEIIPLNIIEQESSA

T3: rat amylin receptor (rat calcitonin receptor + rat RAMP 3) (rat, UniProt P32214 25-516; Q9JJ73 23-147)
T3 construct: whole, on cells; Used as membranes prepared from the transfected cells; also called rAmylin-R; rat amylin 3(a) receptor
T3 sequence (looked up) 1: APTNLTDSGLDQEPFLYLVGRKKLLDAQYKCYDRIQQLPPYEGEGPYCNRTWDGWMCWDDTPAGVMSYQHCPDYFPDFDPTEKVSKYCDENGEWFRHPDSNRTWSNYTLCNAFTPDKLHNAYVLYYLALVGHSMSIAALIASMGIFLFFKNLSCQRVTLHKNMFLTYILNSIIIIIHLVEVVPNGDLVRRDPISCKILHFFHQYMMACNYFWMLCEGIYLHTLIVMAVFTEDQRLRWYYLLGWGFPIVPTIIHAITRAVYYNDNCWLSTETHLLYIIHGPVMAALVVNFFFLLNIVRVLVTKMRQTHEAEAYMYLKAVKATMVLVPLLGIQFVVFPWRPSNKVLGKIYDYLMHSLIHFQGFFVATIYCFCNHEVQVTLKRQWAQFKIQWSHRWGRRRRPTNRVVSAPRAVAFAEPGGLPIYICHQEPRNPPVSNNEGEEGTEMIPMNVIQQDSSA
T3 sequence (looked up) 2: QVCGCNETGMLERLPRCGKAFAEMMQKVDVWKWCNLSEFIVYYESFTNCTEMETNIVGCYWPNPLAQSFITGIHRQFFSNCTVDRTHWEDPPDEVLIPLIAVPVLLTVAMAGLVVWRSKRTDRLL


Experiments:
rat calcitonin receptor [1] = target: T1, rat calcitonin receptor; test: ratio IC50 rat calcitonin receptor / IC50 rat amylin receptor (Assays VIII and VI)
[2] = target: T2, human calcitonin receptor; test: ratio IC50 human calcitonin receptor / IC50 human amylin receptor (Assays VII and V)
Protocol: The resulting pellet was resuspended, homogenized and centrifuged (20.000 rpm, 15 min) in a buffer containing 20 mM Na-HEPES and 0.1 mM EDTA (pH 7.4, buffer 2). The resulting pellet was resuspended in buffer 2 and protein concentration was measured (BCA protein Assay, Pierce). The homogenate was kept cold during the whole procedure. The membranes were kept at −80° C. until use. The assay was performed in a 384 well Optiplate (PerkinElmer) in a total volume of 40 ul. Membranes were mixed with SPA beads. Final concentration of membranes 35 ng/μL final and SPA beads was 0.05 mg/well. Test-compounds were dissolved in DMSO and further diluted in assay buffer (50 mM Hepes, pH 7.4, 1 mM CaCl2, 5 mM MgCl₂, 0.1% OA and 0.02% Tween20). […] The final mixture was incubated with shaking at 400 rpm for 120 min at 25° C. prior to centrifugation (1500 rpm, 10 min). Samples were analyzed on TopCounter™ (Packard). The IC₅₀ was calculated using (one site binding competition analysis) GraphPad Prism5 as a measure of receptor affinity.
Membranes were prepared in the following way; the cells were rinsed with PBS and incubated with Versene for approximately 5 min before harvesting. The cells were flushed with PBS and the cell-suspension was centrifuged for 5 min at 1000 rpm. Cells were homogenized (Ultrathurrax) in a buffer containing 20 mM Na-HEPES and 10 mM EDTA (pH 7.4) and centrifuged at 20.000 rpm for 15 min. The resulting pellet was resuspended, homogenized and centrifuged (20.000 rpm, 15 min) in a buffer containing 20 mM Na-HEPES and 0.1 mM EDTA (pH 7.4, buffer 2). The resulting pellet was resuspended in buffer 2 and protein concentration was measured (BCA protein Assay, Pierce). The homogenate was kept cold during the whole procedure. The membranes were kept at −80° C. until use. Assay was performed in a 384 well Optiplate (PerkinElmer) in a total volume of 40 ul. Membranes were mixed with SPA beads.

rat calcitonin receptor [3] = target: T1, rat calcitonin receptor; test: SPA competition with 125I-calcitonin, membranes of BHK cells with rat calcitonin receptor (Assay VIII)
[4] = target: T3, rat amylin receptor (rat calcitonin …); test: SPA competition with 125I-rat amylin, membranes of BHK cells with rat calcitonin receptor + rat RAMP3 (Assay VI)

Row | Ratio rCT/rAmylin binding (rat calcitonin receptor [1]) | Ratio hCT/hAmylin binding [2] | IC50 (rat calcitonin receptor [3]) | IC50 [4] | Binder
1 | 93.6 | 36.7 | 95.6 nM | 1.02 nM | KCNTATCATQRLAEFLRHSSPNFGAIPSSTNVGSNTY (C20 diacid-gGlu-2xOEG acylated on the alpha amino group of the N-terminal residue (Lys 1); disulfide Cys2-Cys7; C-terminal amide, Derivative of human amylin; also called compound 19)
2 | 71.3 | 25 | 79.9 nM | 1.12 nM | KCNTATCATQRLANFLRHSSPNFGAIPSSTNVGSETY (C20 diacid-gGlu acylated on the alpha amino group of the N-terminal residue (Lys 1); disulfide Cys2-Cys7; C-terminal amide, Derivative of human amylin; also called compound 23) [N^α1-[(4S)-4-carboxy-4-(19-carboxynonadecanoylamino)butanoyl]-[Arg17,Pro21,Pro27,Glu35]-h-amylin]
3 | 116 | 90 | 350 nM | 3.01 nM | KCNTATCATQRLANFLRHSSPNFGAIPSSTNVGSNTY (C20 diacid-gGlu-2xOEG acylated on the alpha amino group of the N-terminal residue (Lys 1); disulfide Cys2-Cys7; C-terminal amide, Derivative of human amylin; also called compound 24)
4 | 46.2 | 31.1 | 69.2 nM | 1.5 nM | KCNTATCATQRLANFLRHSSPNFGAIPSSTNVGHNTY (C20 diacid-gGlu acylated on the alpha amino group of the N-terminal residue (Lys 1); disulfide Cys2-Cys7; C-terminal amide, Derivative of human amylin; also called compound 40) [N^α1-[(4S)-4-carboxy-4-(19-carboxynonadecanoylamino)butanoyl]-[Arg17,Pro21,Pro27,His34]-h-amylin]

Source: patent US20140087995A1 (published 2014)
